# Measurements from publication PMC5442856, “A bacterial negative transcription regulator binding on an inverted repeat in the promoter for epothilone biosynthesis”.
# T1: Esi (His-Esi) (Sorangium cellulosum So0157-2, UniProt UPI000354DD11 1-373)
# T1 sequence: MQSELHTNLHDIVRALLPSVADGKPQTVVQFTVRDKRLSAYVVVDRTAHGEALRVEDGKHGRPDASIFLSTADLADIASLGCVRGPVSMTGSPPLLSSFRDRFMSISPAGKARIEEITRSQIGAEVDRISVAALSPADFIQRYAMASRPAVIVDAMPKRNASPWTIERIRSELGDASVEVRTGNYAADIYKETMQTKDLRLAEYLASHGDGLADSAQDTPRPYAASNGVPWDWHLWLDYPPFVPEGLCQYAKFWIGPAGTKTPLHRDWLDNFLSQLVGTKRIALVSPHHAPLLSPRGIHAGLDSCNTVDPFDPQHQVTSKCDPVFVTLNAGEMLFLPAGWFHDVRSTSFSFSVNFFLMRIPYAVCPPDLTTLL
# B1: 17-bp operator of epothilone promoter (dsDNA)
# DNA 1: GGGACGAGCTAATTCCC
# DNA 2: GGGAATTAGCTCGTCCC
# Target: T1, Esi (His-Esi)
# Experiment: EMSA; poly(dI-dC) competitor; increasing His-Esi; 12 pmol DNA; EMSA: 25 uL with 2.5 uL of 10x buffer (final about 12 mM HEPES, 4 mM Tris, 60 mM KCl, 5 mM MgCl2, 0.1 mM EDTA, pH 8.0), 1 uL glycerol buffer (20% glycerol, 20 mM HEPES), poly(dI-dC), remainder protein and 50 mM NaH2PO4; 30 C, 30 min; 5% native PAGE in TGE pH 8.0 at 4 C
# Conditions: protein: recombinant; tags: N-terminal 6xHis (pET-28a); blunt
binder,measurement,value
B1,binding result,binds
